Measurements as given in the supplement of paper PMC9170038.

System: MS2 coat protein
Assay: apparent KD of MS2 coat protein; designed switch direction (-1 OFF switch, 1 ON switch): -1; higher = weaker reporter binding
Method in brief: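 Three titration conditions were used: no input, 200 uM small-molecule ligand, and an oligonucleotide input. In each, SNAP-549-labelled MS2 coat protein was raised from 0.7 or 1.5 nM, doubling, to 3 µM over designed RNA switches transcribed on Illumina chips by stalled E. coli RNA polymerase. Curve fits of normalised cluster fluorescence gave values whose per-design median over clusters is the apparent KD.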

[1] = Eterna round: R95, input ligand: microRNA oligo, concentration not stated
[2] = input ligand: microRNA oligo, concentration not stated
[3] = Eterna round: R95, input ligand: FMN 200 uM
[4] = Eterna round: R95, input ligand: none

| Sequence | apparent KD of MS2 coat protein [1] [nM] | apparent KD of MS2 coat protein (input ligand: FMN 200 uM) [nM] | apparent KD of MS2 coat protein [2] [nM] | apparent KD of MS2 coat protein (input ligand: none) [nM] | apparent KD of MS2 coat protein [3] [nM] | apparent KD of MS2 coat protein [4] [nM] |
| --- | --- | --- | --- | --- | --- | --- |
| CCAUCGAGUGUGAGGAUAUGCUGUUCCUUGGAGCAGCAGAAGGCACAUGAGGAUCACCCAUGUGGAUACGGUGG [Mat - Exclusion 4 - JL Mod - D80] (puzzle: Brourd's mod of Exclusion 4) | 33.4 | – | – | – | – | – |
| CAGUACUGAGGAUAUACAUGAGGAUCACCCAUGUGCUCUAGCUAGGAUACUAGCAUUAGUAGAAGGCAGUACUG [Fiskers Ex 3 828 mod 8] (Eterna round: R96, puzzle: Exclusion 3) | – | 132 | 14.4 | 19.7 | – | – |
| GGAAAGCAAGGAUAUACAAGGAGACGAUGGAAAGUAGAGCGACAUGAGGAUCACCCAUGUAGAAGGUGCGAGAG [JR_Exclu2_Sub038] (puzzle: Exclusion 2) | 39.1 | – | – | – | 40.7 | 34.8 |
| GCGGACUUGAACGUGAGUUCAGAGACAUGAGGAUCACCCAUGUAGGAUAUCGAUUCGAAACGAAUCGAGAAGGGCAUAGUCCGC [JL denovo 13] (Eterna round: R96, puzzle: Exclusion NG 3) | – | 23.3 | 11.8 | 16.1 | – | – |
| AGUAACAGAGGAUAUACUAUUUUAUGUGUUUGUUGUUUUAAACAUGAGGAUCACCCAUGUAGAAGGCUGAAUAA [JMF 88] (puzzle: Exclusion 2) | 19 | – | – | – | – | – |
| CGGCAUGUAGAAGGAUAUCUGCACGUUUAGUGCAGAGAAGGUCUAACAUGAGGAUCACCCAUGUAGAUCAUUAACCGAUUAAUU [ENG1/8-A2] (Eterna round: R96, puzzle: Exclusion NG 1) | – | 19.5 | 10.4 | 12.1 | – | – |
| AGCUGUGGCCGAGGAUAUCUAAACUCAAUAACCGAAAUAUAAUCGGACAUGAGGAUCACCCAUGUAGAGAAGGCGGUCUCAGCA [Eli eng2 - 081] (Eterna round: R96, puzzle: Exclusion NG 2) | – | – | 28 | – | – | – |
| AGGGAACAUGAGGAUCACCCAUGUGAGGAUAUACAAAAGAAAAGAAAAGAAAGAAGAAGUAGAAGGUACAAGAA [Neferka] (Eterna round: R96, puzzle: Exclusion 1) | – | 32.4 | 26.9 | 32.8 | – | – |
| CUGAACCCGGUAGGAUAUAUUGUGGGCAAGCAUGGAACGACAUGAGGAUCACCCAUGUAAUUUAGGUAGAAGGGCCAAGAGAUU [Excl-NG2-LRO10] (Eterna round: R96, puzzle: Exclusion NG 2) | – | 74.2 | 41.8 | 73.7 | – | – |
| CGAAGAUGAGGAUAUGCUACAGACAUGUUCGCGCAGAAGUAACAUGAGGAUCACCCAUGUAGAAGGCAUCUUUU [Eternabot (L2) Solution 88] (Eterna round: R97, puzzle: Exclusion 2) | – | 36.5 | – | 35.9 | – | – |
| CACCUGAACACAGGAUAUCCUACAUGAGGAUCACCCAUGUAAUAAAUGAGAAUUUCGAAUGUAAUGGAGAAGGGUGGAUAAGGC [Ostracism 89 - Jieux - Exclusion NG 2] (Eterna round: R96, puzzle: Exclusion NG 2) | – | 137 | 81.2 | 97.2 | – | – |
| AGAUGUAGAUACCGAUCCUACAUGAGGAUCACCCAUGUAGCAAGACGUGCACGCGAAGCUCGUCAGACUACCAGAAG [salish99_TOv1_r3_083] (puzzle: Sensor v3, turn-off variant 1) | 99.7 | – | – | – | 114 | 137 |
| CUUUUGUGAGGAUAUUAGUAGUAAAUAAAUUAAAUUACUACUGAGAAGGCACAUGAGGAUCACCCAUGUUCCUC [salish99_ex4_r3_057] (Eterna round: R96, puzzle: Exclusion 4) | – | 428 | 32.8 | 36.6 | – | – |
| GCGCACCUACCAAAAGGUAGGCUAACAUGAGGAUCACCCAUGUAGGAUAUCGAUUGCUUUGCAGUCGAGAAGGACAUGAUGCGC [JL ENG3 3.80 Mod 11] (Eterna round: R96, puzzle: Exclusion NG 3) | – | 73.2 | 21.4 | 30 | – | – |
| CUCGAGUCAGGAUAUGUUCCGCAUGGCAACAUGCUAUAAGAAUAGAAGGGACAUGAGGAUCACCCAUGUUAACA [Eternabot (Original) Solution 12] (Eterna round: R97, puzzle: Exclusion 4) | – | 162 | – | 44.7 | – | – |
| UAUAUAUAGUAAGGAUAUGUAUUAAUCUUAUAAACAGAAGGUACUGACAUGAGGAUCACCCAUGUUUUAGUGUGGGCAUGUAGA [JMF's solution 79] (Eterna round: R96, puzzle: Exclusion NG 1) | – | – | 54.8 | – | – | – |
| UGAGUGCUGCGAGGAUAUACAUGAGGAUCACCCAUGUAAUCGUCUGAGGCAAAGCCUCAGACGAAGUAGAAGGCGCAGUACUCU [Mat - Exclusion NG 2 - Mod of JL - D26] (Eterna round: R96, puzzle: Exclusion NG 2) | – | 15.5 | 11.5 | 17.2 | – | – |

| Sequence | apparent KD of MS2 coat protein [1] [nM] | apparent KD of MS2 coat protein (input ligand: FMN 200 uM) [nM] | apparent KD of MS2 coat protein [2] [nM] | apparent KD of MS2 coat protein (input ligand: none) [nM] | apparent KD of MS2 coat protein [3] [nM] | apparent KD of MS2 coat protein [4] [nM] |
| --- | --- | --- | --- | --- | --- | --- |
| CCUCAGUAAGGAUAUCAGCUUAUGGAGGUGGUAAUGAGAGCUGAGAAGGUACAUGAGGAUCACCCAUGUUAGUU [JL Zatite mod 1] (puzzle: Exclusion 4) | 46.2 | – | – | – | – | – |
| GAGGGUUAAGGAUAUACAUGAGGAUCACCCAUGUAUGGCAAGCCAUAAUCCUCAUUAAGUAGAAGGUAACCUUC [Edederle] (puzzle: Exclusion 3) | 11.8 | – | – | – | – | – |
| UAUCCACAUGAGGAUCACCCAUGUGAGGAUAUGUCCAUAUUCGGCAAAUCGGAUAUGGACAGAAGGCACACCGG [JR_Exclusion1_Sub011] (Eterna round: R96, puzzle: Exclusion 1) | – | 114 | 28.5 | 35.2 | – | – |
| AUGCCGGUCCUCUCAGGUGUACAUGAGGAUCACCCAUGUCACGAGGAUAUCUAAGCGUGGUGGCCAGAGAAGGUGUGACAUGCU [Atibequ] (Eterna round: R96, puzzle: Exclusion NG 3) | – | 38.7 | 17.2 | 22.8 | – | – |
| CUUCGUGUCAAGGAUAUACAGCAACUAUCCGGAGUAGAAGGUGGCACUUGAGGAUCACCCAAGUGCGUGGGUGU [Uszaqubi] (Eterna round: R97, puzzle: Exclusion 6) | – | 33.5 | – | 25.7 | – | – |
| ACAUGACUGCUAGGAUAUAGAUGACAUGAGGAUCACCCAUGUUAUCCCAUGUUGAUGGAAACCGACUAGAAGGAGCAGCAUAUG [Ex NG2 #10] (Eterna round: R96, puzzle: Exclusion NG 2) | – | 53.4 | 24.3 | 33 | – | – |
| UAUAUAUAGUAAGGAUAUGUAUUAAUUUCAUAAACAGAAGGUACUGACAUGAGGAUCACCCAUGUUUUAGUGUGGGCAUGUAGA [JMF's solution 85] (Eterna round: R96, puzzle: Exclusion NG 1) | – | 88.2 | 54.2 | 81.2 | – | – |
| GGUAUACAUGAGGAUCACCCAUGUCAGGAUAUGGCGGCGUCGGCGAAAGCGGAGGCGGCCAGAAGGGACGAUAG [AK-MS2ROC-r4-exclusion1-6.1] (Eterna round: R97, puzzle: Exclusion 1) | – | 70.7 | – | 124 | – | – |
| AAGAGGCGGACAGGAUAUGGGAAAUUGUAAAGACCAGAAGGGUCGGCGAAAAUACAUGAGGAUCACCCAUGUGAAUCAUGACCA [AK ExNG1-7] (Eterna round: R96, puzzle: Exclusion NG 1) | – | 89.1 | 31.6 | 42.5 | – | – |
| AAAUACAAGUAAAGAUCCUACAUGAGGAUCACCCAUGUGCUCGUUUUAUAAAGUACUAUCACGAAAGUGAUAGUACA [Sensor 3, v1 - 23] (puzzle: Sensor v3, turn-off variant 1) | 4.81 | – | – | – | 900 | 435 |
| CCGGAAAUAGAGGAUAUAGGACUCGAUAGAGUCCUAGAAGGCUAUACAUGAGGAUCACCCAUGUGUCCUACCGG [Fiskers Ex 6 - 64] (puzzle: Exclusion 6) | 13.6 | – | – | – | 40.7 | 13.4 |
| UCCGAACAUGAGGAUCACCCAUGUCAGGAUAUUCGGUUACGUGACAAAUAGUACUAACGAAGAAGGGACAUGCU [Eternabot (L2) Solution 26] (Eterna round: R97, puzzle: Exclusion 1) | – | 79.1 | – | 27.7 | – | – |
| AUCCGUUGUAUAGGAUAUAAGUGUAAACUGUACUUAGAAGGAUACAUGAGGAUCACCCAUGUUGUAAUAGAUGAGCAUAGAGCA [Eternabot solution 6] (Eterna round: R96, puzzle: Exclusion NG 1) | – | 52.2 | 24.1 | 30.2 | – | – |
| UAUUAGCAAGCGAGAUCCCACAUGAGGAUCACCCAUGUAGCAUCCAGAAUUACUGGGUGCAAAAGCUCGUCUUAUUA [Winner reversed engineered 4] (Eterna round: R97, puzzle: Sensor, turn-off variant 1) | – | 25.4 | – | 26.1 | – | – |
| AUACGUCAAGUCAGGAUAUAUACCGCGACUACGGCGUAGAAGGGACAUGAGGAUCACCCAUGUAAAAGGGCAAA [Ceerrilaza] (puzzle: Brourd's mod of Exclusion 4) | 36.5 | – | – | – | 37.7 | 34.5 |
| CGGCAUGAAGGAUAUACAUGAGGAUCACCCAUGUAAGUUACCUACAUGGCCUCACCUAGUAGAAGGUUAUCCGG [Eternabot (L2) Solution 72] (Eterna round: R97, puzzle: Exclusion 3) | – | 94.4 | – | 28 | – | – |
